Measured values reported in patent US20060153798A1.

Target: growth hormone (GH) receptor (mouse) (UniProt P16882)
Assay: cell-based or functional assay

GH receptor mRNA expression levels in the liver (quantitative RT-PCR), 60 minutes after 30 µg subcutaneous rGH (% of level prior to administration): 65
IGF-I-BP3 mRNA expression levels in the liver (quantitative RT-PCR, % of control), 60 minutes after 30 µg subcutaneous rGH: 250 % increase
Substance: recombinant rat growth hormone (from UniProt P01244 27-216) (ligand)
